20 molecules from paper PMC10021056 (Nature Communications, 2023) can be followed below.

The target of test [1] is prefusion-stabilized Nipah virus fusion (F) glycoprotein, construct NiVF_prefusion (Nipah virus, Malaysian strain, stabilised).
Test [2] addresses postfusion Nipah virus fusion (F) glycoprotein, construct NiVF_postfusion (Nipah virus, Malaysian strain, stabilised).
The target in test [3] is prefusion-stabilized NiV F (NiVop08) (Nipah virus, Malaysian strain, stabilised).

B1: 201805_NiV_P2_D4 (antibody, V domains shown)
VH: EVQLQQSGAELVKPGASVKMSCKASGYTFTDYSIHWVKQKSGQGLEWIGWFYPGSGSIKNSDKVKDEAILTADKSSSTVYLELSSLTSEDSAVYFCARHGGGYDYGRAWFVYWGQGTLVTLEQ
VL: FTQMTQSPKFLLVSAGDRVTITCKASQSVSNDVAWYQQKPGQSPKLLIYYASNRYTGVPDRFTGSGYGTDFTFTISTVQAEDLAVYFCQQDYGSPYTFGGGTKLKN
Consider B1, for which the binding result in test [1] is listed as “binds”.

B2: 201805_NiV_PL4_E1 (antibody, V domains shown)
VH: EVQLEESGGGLVPGGSLKLSCAASGFTFSDYYMYWVRQTPEKRLEWVATISDGGSYTYYPDSVKGRFTISRDNAKNNLYLQMSSLKSEDTAMYYCAREKPDRGHYYAMDYWGQGTSVTVLQ
VL: IQMTQSSSSFSVSLGDRVTITCKASEDIYNRLAWYQQKPGNAPRLLISGATSLETGVPSRFSGSGSGKDYTLSITSLQTEDVATYYCQQYWSTPYTFGGGTKLKN
In the case of B2, the binding result in test [1] is given as “binds”.

B3: 201805_NiV_PL4_E11 (antibody, V domains shown)
VH: QVQLQQSGAELVKPGASVKLSCKASGYTFTNYDINWVRQRPEQGLEWIGWIFPGDGTTSYNEKFKDKATLTTDKSSSTAYMQLSRLTSEDSTVYFCARLGWGGAMDYWGQGTSVTVSA
VL: YTLMTQSPLSLPVSLGDQASISCRSSQSIVHSNGNTYLQWYLQKPGQSPKLLIYKVSNRFSGVPDRFSGSGSGTDFTLKISRVEAEDLGVYYCFQGSHVPYTFGGGPSNKR
Consider B3, for which the binding result in test [1] and in test [2] was “binds” each time.

B4: 201805_NiV_PL4_C5 (antibody, V domains shown)
VH: EVQLQQSGPELVKPGASMKISCKASGYSFTGYTMNWVKQSHGKNLEWIGLINPYIGGTSYNQKFKGKATLTVDKSSSTAYMELLSLTSEDSAVYYCARLLGREGYYFDYWGQGTTLTSLS
VL: DIQMTQTTSSLSASLGDRVTISCRASQDISNYLNWYQQKPDGTVKLLIYYTSRLHSGVPSRFSGSGSGTDYSLTISNLEQEDIATYFCQQGTTLPFTFGSGTKWKN
Take B4: the binding result in test [3] is given as “binds”.

B5: 201805_NiV_PL4_D8 (antibody, V domains shown)
VH: EVQLQQSGPELVKPGASVKISCQASGYTFTDSNMNWVRQTHGKSLEWIGDVNPNNGGTSYNQRFKGKATLTVDKSSSTAYMEFRSLTSEDSAVYFCSRRALITTVVADYYGLDYWGQGTSVTVSA
VL: SIVMTQSPKFLLVSAGDRVTMTCKASQSVNSDVVWFQQKPGQSPKLLIYYASIRYTGVPDRFTGSGYGTDFTFTISPVQAEDLAVYFCQQDYSSPYTFGGGTKLEIK
Consider B5, for which the binding result in test [3] is “binds”.

B6: 201805_NiV_P2_F7 (antibody, V domains shown)
VH: QVQLQQSGAELVKPGASVKMSCKASGYTFTNYWIHWVKQRPGQGLEWIGEIDPSNGNSDHNQDFKVKATLTVDTFSSTAYMQLNSLTSEDSAVYYCARSRYYFDYWGQGTTLTVSA
VL: QIVLPQSPAIMSASPGEKVTLTCSARSSVSSGYLYWYQQKPGSSPKLWIYSTSNLASGVPTRFSGSGSGTSYSLTISSMEAEDAASYFCHQWSSYPPTFGGGTKLEIK
With B6, the binding result in test [1] and in test [2] was “binds” in each case.

B7: 201805_NiV_PL3_H3 (antibody, V domains shown)
V domain 1: EVQLEESGGGLVPGGSLKLSCAASGFTFISYAMSWIRQTPEKRLEWVATITSGGSYTYYPDSVMGRFTISRDNAKNTLHLQMSSLRSEDTAIYYCARGGYGSISPYYFDYWGQGTTLTSSA
V domain 2: DIQMTQSSSSFSVSLGDRVTITCKAGEDIYNRLAWYQQKPGNAPRLLISGAISLETGVPSRFSGSGSGKDYTLSITSLQTEDVATYYCQQYWTNPWTFGGGTKLKSN
With B7, the binding result in test [1] and in test [2] was “binds” each time.

B8: 201805_NiV_PL3_H11 (antibody, V domains shown)
VH: EVQLQQSGPELVKPGTSVKISCKASDYSFTGYFMNWVKQSHGKSLEWIGRINPYNGDTFYNQKFKGKATLTVDKSSSTAHMELLSLTSEDSAVYYCAAFDVYYPAWFAYWGQGTTVTVSS
VL: DIQMTQSSSSFSVSLGDRVTFTCKASEDIYNRLAWYQQKPGNAPRLLISGATSLETGVPSRFSGSGSGKDYTLTITSLQTEDVATYYCQQYWSIPWTFGGGTKLEIK
B8: in test [3], the binding result was “binds”.

B9: 201805_NiV_PL3_A4 (antibody, V domains shown)
VH: QVQLQQSGTELVKPGASVKLSCKASGYTFTSYWMHWVKQRPGQGLEWIGNINPSNGYTNNNEKFKSKATLTVDKSSSTAYMQLSSLTSEDSAVYYCARGGIYYYGSSLYYYTMDYWGQGTSVTVSS
VL: DIQMTQSSSSFSVSLGDRVTITCKASEDIYNRLAWYQQKPGNAPRLLISDATSLETGVPSRFSGSGSGKDYTLSITSLQTEDVATYYCHQYWSTPWTFGGGTKLEIK
As to B9, the binding result in test [1] is “binds”.

B10: 201805_NiV_PL4_C7 (antibody, V domains shown)
VH: FEESGGLVQPGGSMKISCVASGFTFSNYWMNWVRQSPEKGLEWIAQIRLKSDNYATHYAESVKGRFTISRDDSKSSVYLQMNNLRAEDSGIYYCTGILDYWGQGTSVTVSQ
VL: YIQMTQSPSSMSVSLGDTVSITCHASQGISSNIGWLQQKPGKSFKVLIYHGTNLEDGVPSRFSGSGSGADYSLTISSLESEDFADYYCVQYAQFPYTFGGGPNDKT
B10: in test [1], the binding result is “binds”.

B11: 201805_NiV_PL3_H6 (antibody, V domains shown)
VH: EVQLEESGGGLVKPGGSLKLSCTASGFAFSTYDMSWVRQTPEKRLEWVAYISSGGGSTYYPDSVKGRFTISRDNARNTLYLQMSSLKSDDTAMYYCVRDDGYYGGAWFAYWGQGTLVTVSA
VL: DIQMTQTTSSLSASLGDRVTISCRASQDIRNYLNWYQQKPDGTVKLLIYYTSRFHSGVPSRFSGSGSGTDYSLTINNLEQEDITTYFCQQGYILPWTFGGGTKLEIK
For B11, the binding result in test [1] and in test [2] was “binds” throughout.

B12: 201805_NiV_PL3_C3 (antibody, V domains shown)
V domain 1: RFKLQQSGPELVKPGASMKISCKASGYSFTGYTMNWVKQSHGKNLEWIGLINPYIGGTSYNQKFKGKATLTVDKSSSTAYMELLSLTSEDSAVYYCARGGVYYGSNYDFDYWGQGTTLTSLS
V domain 2: DIQMTQTTSSLSASLGDRVTISCSASQGISNYLNWYQQKPDGTVKLLIYYTSSLHSGVPSRFSGSGSGTDYSLTISNLEPEDIATYYCQQYSKLPRTFGGGTKLKSN
As for B12, the binding result in test [3] is reported as “binds”.

B13: 201805_NiV_PL4_D5 (antibody, V domains shown)
VH: QIQLVQSGPELKKPGETVKISCKASGFTFTNYGINWVKQAPGKGLKWMGWTDTFTGEPTYADDFKGRFAFSLETSASTAYLQINNLKNEDMATYFCARQGWGEAMDYWGQGTSVTVSA
VL: DVLDEQFHFLPVSLGDQASISCRSSQSIVHSNGNTYLEWYLQKPGQSPKLLIYKVSNRFSGVPDRFSGSGSGTDFTLKISRVEAEDLGVYYCFQGSHVPWTFGGGTKLEIK
In the case of B13, the binding result in test [1] and in test [2] was “binds” throughout.

B14: 201805_NiV_P1_G1 (antibody, V domains shown)
VH: QVQLQQSGAELAKPGASVKLSCKATGYTFTGSWIEWVKLRPGHGLEWFGEIFPGTGSVKHNEKFRGKAIITAETSSNTAYMKLSSLTTEDSAIYFCSRSNTNYEFFDVWGTGTTVTVSS
VL: EILLTQSPAIISASPGERVTFTCSASSGVNYMNWYQQKPGSSPKIWIYGVSNLASGVPARFSGSGSGTSFSFTITNLEAEDVATYYCQQRSTFPLTFGAGTKLEIK
As to B14, the binding result in test [1] and in test [2] was “binds” in each case.

B15: 201805_NiV_PL3_G2 (antibody, V domains shown)
VH: QIQLVQSGPELKKPGETVKISCTTSGFIFRNYGVNWVKRAPGKGLKWMGWIDAYTGEPAYADDFKGRFAFSLEMSANTAYLQITNLKNEDMATYFCARQGWGEAMDYWGQGTSVTVSS
VL: DVLMTQSPLSLPVSSGDQASISCRSSQTFVHSNGNTYLEWYLQKPGQSPKLLIYKVSNRFSGVPDRFIGSGSGTDFTLKISRVEADDLGVYYCFQGSHVPWAFGGGTKLEIK
As for B15, the binding result in test [1] and in test [2] was “binds” each time.

B16: 201805_NiV_PL3_G11 (antibody, V domains shown)
VH: QVQLQQSGAELVKPGASVKLSCKASGYIFTNYDINWVRQRPEQGLEWIGWIFPGDVSTNYNEKFKGKATLTTDKSSSTAYMQLSRLTSEDSAVYFCARRSFQAMDYWGQGTSVTVSA
VL: DVLMTQTPLSLPVSLGDQASISCRSSQSIVHSNGNTYLEWYLQKPGQSPKLLIYKVSNRFSGVPDRFSGSGSGTDFTLKISRVEAEDLGVYYCFQGSHVPWTFGGGTKLEIK
Consider B16, for which the binding result in test [1] and in test [2] was “binds” throughout.

B17: 201805_NiV_P1_A6 (antibody, V domains shown)
VH: LCLLTSSRSGLVRPGASVKLSCKASGYSFTSYWMNWVKQRPGHGLEWIGMIHPSDSETRLNQRFKDKATLTVDKSSSTAYMQLSSPTSEDSAVYYCAREDFYAMDYWGQGTSVTFSA
VL: DIVMSQSPSSLAVSVGEKITMSCKSSQSLLYSSNKKKYLAWYQQKPGQSPKLLIYWASTRESGVPDRFTGSGSGTDFTLTISSVKAEDLAVYYCQQYYSYPYTFGGGPSNKR
Regarding B17, the binding result in test [1] and in test [2] was “binds” each time.

B18: 201805_NiV_P1_H5 (antibody, V domains shown)
VH: EFQLQQSGPEVVKPGASVRISCKTSGYSFTDYNMNWVRQNNGRSLEWIGVINPNYGTFTYNQKFRGKATLTVDQSSSTAYMQLNSLTSADSAVYFCARAPDYYGINFYFDYWGQGTTLTVSA
VL: DVVMTQTPLSLPVSLGDQASISCRSSQSLVHSNGDTYLHWYLQKPGQSPKLLIYKVSNRFSGVPDRFSGSGSGTDFTLKISRVEAEDLGVYFCSQSTHVPPWTFGGGTKLEIK
As to B18, in test [3], the binding result is given as “binds”.

B19: 201805_NiV_PL4_F4 (antibody, V domains shown)
VH: EFQLQQSGPEVVKPGASVKISCKTSGYSFTDYNMNWVKQSNGKSLEWIGVINPNYGTTTYNQKFRGKATLTVDQSSSTAYMQLNSLTSEDSAVYYCARAPDYYGINFYFDYWGQGTTLTVSA
VL: DVVMTQSPLSLPVSLGDQASISCRSSQSLVHSNGDTYLHWYLQKPGQSPKLLIYKVSNRFSGVPDRFSGSGSGTDFTLKISRVEAEDLGVYFCSQSTHVPPWTFGGGTKLEIK
For B19, the binding result in test [3] was “binds”.

B20: 201805_NiV_PL3_E1 (antibody, V domains shown)
VH: RFRLQQSGAELVKPGASVKLSCRASGYIFTSYWMHWVKQRPGQGLEWIGMIHPNSGSPNYNEKFKSKATLTVDNSSSTAYMQLSSLTSEDSAVYYCARTLLGQGAWFAYWGQGTLVTLAA
VL: YIQMTLSPATLSVTPGDRVSLSCRASQSISDFLHWYQQKSHESPRLLIKYASQSISGIPSRFSGSGSGSDFTLSINSVEPEDVGVYYCQNGHSFPYTFGGGTKLKT
B20: the binding result in test [1] and in test [2] was “binds” throughout.
